Results as given in article PMC10326071.

Legend:
[1] = target: middle domain of human poly(A)-binding protein-interacting protein 1 (Paip1M, residues 78-296) (human) (UniProt Q9H074); test: BLI; […]; 1×PBS pH 7.4, 0.1% surfactant P20, 0.1% BSA, 500 mM NaCl; 25 °C; global fit, 1:1 model
[2] = target: middle domain of human Paip1 (Paip1M, residues 78-296) (human) (UniProt Q9H074); test: BLI; […]; association 30 s, dissociation 80 s; 25 C; global fit, 1:1 model
[3] = target: T1, SARS-CoV-2 SUD-core (SARS-CoV-2, UniProt P0DTD1 1231-1494); test: EMSA; no compound; conditions: protein: recombinant; tags: N-terminal 6xHis; label: none stated; SYBR-Gold stain; G4 (predicted)
[4] = target: SARS-CoV SUD-core (SARS-CoV, UniProt P0C6X7 1207-1470); test: BLI; conditions: protein: recombinant; tags: N-terminal 6xHis; G4
[5] = target: T1, SARS-CoV-2 SUD-core; test: BLI; conditions: protein: recombinant; tags: N-terminal 6xHis; G4
[6] = target: T1, SARS-CoV-2 SUD-core; test: BLI; Fig. 2C titration; conditions: protein: recombinant; tags: N-terminal 6xHis; G4

Sequence of middle domain of human Paip1 (Paip1M, residues 78-296) (human) (Q9H074 157-375): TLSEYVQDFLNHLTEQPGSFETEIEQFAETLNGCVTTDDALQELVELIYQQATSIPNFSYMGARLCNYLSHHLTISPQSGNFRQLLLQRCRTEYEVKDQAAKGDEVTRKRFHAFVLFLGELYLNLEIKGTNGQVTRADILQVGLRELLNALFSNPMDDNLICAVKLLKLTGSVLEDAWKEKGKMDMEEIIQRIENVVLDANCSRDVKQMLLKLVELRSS
Sequence of middle domain of human poly(A)-binding protein-interacting protein 1 (Paip1M, residues 78-296) (human) (Q9H074 157-375): as above

Q: Which Kd [1] does the source give for “SARS-CoV SUD-core (nsp3 389-652) (domain or fragment)” here?
A: 4400 nM

Q: What about the koff [2] of the same molecule?
A: 0.0066 s⁻¹

Q: “SARS-CoV-2 SUD-core (nsp3 residues 413-676) (domain or fragment)” was tested. Which koff [2] did it give?
A: 0.0055 s⁻¹

Q: Does GGCUUAUAGGUUUAAUGGUAUUGG (structured_RNA) [G4-24268 (EMSA)] bind [3]?
A: binds

Q: For CGGGAGGGCGGGGAGGGC (structured_RNA) [G4-TRF2 (BLI)], which Kd [4] is on record?
A: 17 nM

Q: What about the Kd [5] of the same molecule?
A: 35.8 nM

Q: And the Kd [6]?
A: 170 nM
